Experimental findings from publication PMC3910249 (Molecular cell, 2013) are described below.

In this assay the target is T1, FtsY NG domain (SRP receptor FtsY, residues 196-498) (E. coli, UniProt P10121 196-497).
T1 sequence (looked up): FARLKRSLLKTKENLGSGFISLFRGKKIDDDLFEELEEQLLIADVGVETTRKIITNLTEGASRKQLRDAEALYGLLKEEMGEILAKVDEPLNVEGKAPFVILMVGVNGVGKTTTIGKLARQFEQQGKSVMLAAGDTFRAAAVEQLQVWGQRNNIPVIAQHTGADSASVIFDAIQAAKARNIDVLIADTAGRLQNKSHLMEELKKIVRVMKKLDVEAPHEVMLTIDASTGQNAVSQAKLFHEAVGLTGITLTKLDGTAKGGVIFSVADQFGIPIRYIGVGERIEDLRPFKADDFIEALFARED
In words: SEC. For orientation: SEC sorts molecules by how far they enter the pores of the column.

B1: Ffh NG domain (signal recognition particle protein Ffh, residues 1-298) (domain or fragment, E. coli, UniProt P0AGD7 1-298, looked up)
chain: MFDNLTDRLSRTLRNISGRGRLTEDNVKDTLREVRMALLEADVALPVVREFINRVKEKAVGHEVNKSLTPGQEFVKIVRNELVAAMGEENQTLNLAAQPPAVVLMAGLQGAGKTTSVGKLGKFLREKHKKKVLVVSADVYRPAAIKQLETLAEQVGVDFFPSDVGQKPVDIVNAALKEAKLKFYDVLLVDTAGRLHVDEAMMDEIKQVHASINPVETLFVVDAMTGQDAANTAKAFNEALPLTGVVLTKVDGDARGGAALSIRHITGKPIKFLGVGEKTEALEPFHPDRIASRILGMG
Consider B1, for which the binding result is “binds”.
